A word on the stoichiometry N: it is the number of molecules, sites or subunits per partner or assembly.

Among the data in PMC4207793 are stoichiometry N values, retold here.

For this assay, the target named is trimerized sTNFRII-gAD fusion protein (UniProt P20333). The assay can be described thus: AUC; ultracentrifuge analysis of the purified trimerized sTNFRII-gAD.

As for “trimerized sTNFRII-gAD fusion protein (from UniProt P20333 23-257)”, the stoichiometry N is 3.
